Results published in patent US20130295106A1 (ONCOMED PHARMACEUTICALS, published 2013).

How the values were obtained:
Experiment in all cases: flow cytometry, HEK293 cells transiently co-transfected with FZD expression vector and GFP
[1] = target: T1, human FZD9 expressed on transfected HEK293 cells (human, UniProt O00144 23-591)
T1 sequence: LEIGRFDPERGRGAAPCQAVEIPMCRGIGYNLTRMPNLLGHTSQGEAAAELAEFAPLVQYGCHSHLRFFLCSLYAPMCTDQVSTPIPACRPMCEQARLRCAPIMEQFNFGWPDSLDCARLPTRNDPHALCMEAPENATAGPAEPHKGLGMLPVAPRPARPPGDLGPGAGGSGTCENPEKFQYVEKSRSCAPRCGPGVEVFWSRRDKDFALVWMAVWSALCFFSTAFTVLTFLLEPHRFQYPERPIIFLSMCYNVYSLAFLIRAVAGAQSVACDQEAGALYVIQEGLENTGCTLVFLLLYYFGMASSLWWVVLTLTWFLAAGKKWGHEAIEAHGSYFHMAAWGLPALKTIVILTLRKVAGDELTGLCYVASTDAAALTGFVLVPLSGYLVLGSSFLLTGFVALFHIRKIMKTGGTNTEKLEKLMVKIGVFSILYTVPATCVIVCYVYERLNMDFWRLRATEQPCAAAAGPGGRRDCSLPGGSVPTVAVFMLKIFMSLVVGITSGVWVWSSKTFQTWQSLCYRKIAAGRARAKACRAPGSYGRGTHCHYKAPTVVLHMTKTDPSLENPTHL
Procedure: (§1) To measure antibody binding to FZD by flow cytometry HEK293 cells were co-transfected with FZD expression vectors and the transfection marker GFP. Twenty-four to forty-eight hours post-transfection, cells were collected in suspension and incubated on ice with anti-FZD antibodies (10 μg/ml unless otherwise indicated) or control IgG to detect background antibody binding. The cells were washed and primary antibodies detected with Fc domain-specific secondary antibodies conjugated to a fluorescent chromophore (e.g. phycoerythrin conjugated anti-human IgG). Labeled cells were then analyzed by flow cytometry to identify anti-FZD antibodies that specifically recognize cell surface expression of FZD protein. Monoclonal antibodies 18R5 and 18R8 recognized FZD on transfected cells. As shown in FIG. 1 and FIG. 2, both 18R8 and 18R5 bind to multiple FZD including FZD1, FZD2, FZD5, FZD7, and FZD8. To examine the relative ability of 18R8 and 18R5 to bind to each FZD protein, titration analysis was conducted wherein the amount of antibody in the binding reaction was varied (FIG. 2).

[2] = target: T2, human FZD10 expressed on transfected HEK293 cells (human, UniProt Q9ULW2 21-581)
T2 sequence: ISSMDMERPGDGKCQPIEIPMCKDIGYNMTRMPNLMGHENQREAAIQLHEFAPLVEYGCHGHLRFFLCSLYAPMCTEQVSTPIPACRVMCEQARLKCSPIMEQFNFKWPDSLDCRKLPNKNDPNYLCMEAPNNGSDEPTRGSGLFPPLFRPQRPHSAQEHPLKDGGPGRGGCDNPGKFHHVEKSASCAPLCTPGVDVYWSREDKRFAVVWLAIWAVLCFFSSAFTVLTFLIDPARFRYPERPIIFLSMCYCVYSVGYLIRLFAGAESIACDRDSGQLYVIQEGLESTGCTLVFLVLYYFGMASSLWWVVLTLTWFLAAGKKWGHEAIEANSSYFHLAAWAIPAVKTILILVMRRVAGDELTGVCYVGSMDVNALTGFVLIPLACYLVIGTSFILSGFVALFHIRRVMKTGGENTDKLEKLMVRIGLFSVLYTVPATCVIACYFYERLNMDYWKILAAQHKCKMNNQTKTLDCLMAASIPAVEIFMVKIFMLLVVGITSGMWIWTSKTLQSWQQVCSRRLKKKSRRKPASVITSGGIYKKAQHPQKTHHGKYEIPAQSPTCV
Procedure: as §1

[3] = target: T3, human FZD4 expressed on transfected HEK293 cells (human, UniProt Q9ULV1 37-537)
T3 sequence: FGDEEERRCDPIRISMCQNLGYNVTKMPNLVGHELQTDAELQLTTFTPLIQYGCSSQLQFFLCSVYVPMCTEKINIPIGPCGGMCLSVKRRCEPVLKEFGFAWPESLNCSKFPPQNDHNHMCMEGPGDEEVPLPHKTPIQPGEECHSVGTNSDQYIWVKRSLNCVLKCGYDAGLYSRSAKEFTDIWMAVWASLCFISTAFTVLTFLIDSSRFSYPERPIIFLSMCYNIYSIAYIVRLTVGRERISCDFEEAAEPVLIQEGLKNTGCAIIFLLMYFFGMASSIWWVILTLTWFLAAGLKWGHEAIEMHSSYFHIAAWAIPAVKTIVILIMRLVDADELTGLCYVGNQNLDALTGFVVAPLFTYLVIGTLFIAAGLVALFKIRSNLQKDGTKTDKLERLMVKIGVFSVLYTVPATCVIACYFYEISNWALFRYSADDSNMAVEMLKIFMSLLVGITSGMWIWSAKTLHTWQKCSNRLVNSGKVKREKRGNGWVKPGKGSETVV
Procedure: as §1

[4] = target: T4, human FZD3 expressed on transfected HEK293 cells (human, UniProt Q9NPG1 23-666)
T4 sequence: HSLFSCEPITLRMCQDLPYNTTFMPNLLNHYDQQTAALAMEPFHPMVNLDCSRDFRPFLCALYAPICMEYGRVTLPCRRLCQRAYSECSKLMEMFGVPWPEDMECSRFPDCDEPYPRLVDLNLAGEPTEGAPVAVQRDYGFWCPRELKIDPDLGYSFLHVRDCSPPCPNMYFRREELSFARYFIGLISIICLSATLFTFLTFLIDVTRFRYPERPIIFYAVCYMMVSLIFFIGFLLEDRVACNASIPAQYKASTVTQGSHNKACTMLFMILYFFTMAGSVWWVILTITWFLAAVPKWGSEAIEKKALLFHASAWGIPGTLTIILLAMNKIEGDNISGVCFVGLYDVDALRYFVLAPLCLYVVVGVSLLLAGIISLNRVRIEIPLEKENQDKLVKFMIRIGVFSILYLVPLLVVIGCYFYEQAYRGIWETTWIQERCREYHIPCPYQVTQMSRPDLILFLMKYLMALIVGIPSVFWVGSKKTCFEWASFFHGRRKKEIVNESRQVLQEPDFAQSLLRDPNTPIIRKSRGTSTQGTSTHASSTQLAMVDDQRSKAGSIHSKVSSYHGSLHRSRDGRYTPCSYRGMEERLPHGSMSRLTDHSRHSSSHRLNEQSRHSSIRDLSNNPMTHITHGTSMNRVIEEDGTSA
Procedure: as §1

Measured: binding result

B1: 18R8 IgG antibody (human IgG2, lambda) (antibody, V domains shown)
VH: EVQLVESGGGLVQPGGSLRLSCAASGFTFSHYTLSWVRQAPGKGLEWVSVISGDGSYTYYADSVKGRFTISSDNSKNTLYLQMNSLRAEDTAVYYCARNFIKYVFANWGQGTLVTVSS
VL: DIELTQPPSVSVAPGQTARISCSGDKLGKKYASWYQQKPGQAPVLVIYEKDNRPSGIPERFSGSNSGNTATLTISGTQAEDEADYYCSSFAGNSLEVFGGGTKLTVLG
notes: Expressed in CHO cells, protein A purified; also called 18R8 IgG2 antibody; anti-FZD antibody 18R8
no binding (tested: 10 ug/ml): all assays above
